Test results published in the supplement of paper PMC6755084.

These sequences were tested on F1*sub RNA substrate (template-directed ligation) (assay: fraction ligated after 30 min (ligated reads / total reads); higher = more ligase activity; sequences stand for … in GAGACCGCAACTGAAAAGTTGT…AGTTCTGCACGTAGAAGCAAAAGGC). Conditions: 42 °C.
Procedure, shortened: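 Oligo-pool templates underwent PCR amplification, T7 transcription and gel purification to yield ribozyme variants. Gel-separated ligated and unligated bands were converted to complementary DNA with barcoded primers and sequenced on a MiSeq, keeping core bases of quality ≥20. The ratio of ligated reads to total reads gave the fraction ligated for every variant.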

Sequence	fraction ligated
TATCACTGTCGTAAGCACTTTGATGGGTTGA [3d1412]	0.686
TATCACTGTCGTAAGCACTTTGGAGGGTTGA [3d1414]	0.0753
TATCACTGTCGTAAGCACTTTGGATGGGTTA [3d1416]	0.752
TATCACTGTCGTAAGCACTTTGGATGGGTTG [3d1417]	0.816
TATCACTGTCGTAAGCACTTTGGATGGTTGA [3d1415]	0.175
TATCACTGTCGTAAGCACTTTGGTGGGTTGA [3d1413]	0.11
TATCACTGTCGTAAGCATTTGGATGGGTTGA [3d1410]	0.797
TATCACTGTCGTAAGCCTTTGGATGGGTTGA [3d1409]	0.815
TATCACTGTCGTAGAACTTTGGATGGGTTGA [3d1388]	0.886
TATCACTGTCGTAGACACTTGGATGGGTTGA [3d1391]	0.799
TATCACTGTCGTAGACACTTTGATGGGTTGA [3d1392]	0.787
TATCACTGTCGTAGACACTTTGGAGGGTTGA [3d1394]	0.13
TATCACTGTCGTAGACACTTTGGATGGGTTA [3d1396]	0.791
TATCACTGTCGTAGACACTTTGGATGGGTTG [3d1397]	0.811
TATCACTGTCGTAGACACTTTGGATGGGTTGA [2d134]	0.861
TATCACTGTCGTAGACACTTTGGATGGTTGA [3d1395]	0.409
TATCACTGTCGTAGACACTTTGGTGGGTTGA [3d1393]	0.499
TATCACTGTCGTAGACATTTGGATGGGTTGA [3d1390]	0.864
TATCACTGTCGTAGACCTTTGGATGGGTTGA [3d1389]	0.837
TATCACTGTCGTAGCACTTTGGATGGGTTGA [3d1387]	0.881
TATCACTGTCGTGACACTTTGGATGGGTTGA [3d1385]	0.854
TATCACTGTCTAAACACTTTGGATGGGTTGA [3d1360]	0.816
TATCACTGTCTAAGAACTTTGGATGGGTTGA [3d1362]	0.849

Sequence	fraction ligated
TATCACTGTCTAAGACACTTGGATGGGTTGA [3d1365]	0.789
TATCACTGTCTAAGACACTTTGATGGGTTGA [3d1366]	0.77
TATCACTGTCTAAGACACTTTGGAGGGTTGA [3d1368]	0.102
TATCACTGTCTAAGACACTTTGGATGGGTTA [3d1370]	0.762
TATCACTGTCTAAGACACTTTGGATGGGTTG [3d1371]	0.8
TATCACTGTCTAAGACACTTTGGATGGGTTGA [2d132]	0.818
TATCACTGTCTAAGACACTTTGGATGGTTGA [3d1369]	0.239
TATCACTGTCTAAGACACTTTGGTGGGTTGA [3d1367]	0.34
TATCACTGTCTAAGACATTTGGATGGGTTGA [3d1364]	0.803
TATCACTGTCTAAGACCTTTGGATGGGTTGA [3d1363]	0.795
TATCACTGTCTAAGCACTTTGGATGGGTTGA [3d1361]	0.771
TATCACTGTCTAGACACTTTGGATGGGTTGA [3d1359]	0.822
TATCACTGTGAAGACACTTTGGATGGGTTGA [3d1344]	0.863
TATCACTGTGTAAACACTTTGGATGGGTTGA [3d1346]	0.845
TATCACTGTGTAAGAACTTTGGATGGGTTGA [3d1348]	0.882
TATCACTGTGTAAGACACTTGGATGGGTTGA [3d1351]	0.821
TATCACTGTGTAAGACACTTTGATGGGTTGA [3d1352]	0.355
TATCACTGTGTAAGACACTTTGGAGGGTTGA [3d1354]	0.0274
TATCACTGTGTAAGACACTTTGGATGGGTTA [3d1356]	0.823
TATCACTGTGTAAGACACTTTGGATGGGTTG [3d1357]	0.843
TATCACTGTGTAAGACACTTTGGATGGGTTGA [2d131]	0.887
TATCACTGTGTAAGACACTTTGGATGGTTGA [3d1355]	0.216
TATCACTGTGTAAGACACTTTGGTGGGTTGA [3d1353]	0.0456

Sequence	fraction ligated
TATCACTGTGTAAGACATTTGGATGGGTTGA [3d1350]	0.849
TATCACTGTGTAAGACCTTTGGATGGGTTGA [3d1349]	0.889
TATCACTGTGTAAGCACTTTGGATGGGTTGA [3d1347]	0.878
TATCACTGTGTAGACACTTTGGATGGGTTGA [3d1345]	0.886
TATCACTGTTAAGACACTTTGGATGGGTTGA [3d1343]	0.828
TATCACTTCGAAGACACTTTGGATGGGTTGA [3d1313]	0.803
TATCACTTCGTAAACACTTTGGATGGGTTGA [3d1315]	0.792
TATCACTTCGTAAGAACTTTGGATGGGTTGA [3d1317]	0.868
TATCACTTCGTAAGACACTTGGATGGGTTGA [3d1320]	0.796
TATCACTTCGTAAGACACTTTGATGGGTTGA [3d1321]	0.795
TATCACTTCGTAAGACACTTTGGAGGGTTGA [3d1323]	0.0267
TATCACTTCGTAAGACACTTTGGATGGGTTA [3d1325]	0.706
TATCACTTCGTAAGACACTTTGGATGGGTTG [3d1326]	0.795
TATCACTTCGTAAGACACTTTGGATGGGTTGA [2d129]	0.825
TATCACTTCGTAAGACACTTTGGATGGTTGA [3d1324]	0.122
TATCACTTCGTAAGACACTTTGGTGGGTTGA [3d1322]	0.085
TATCACTTCGTAAGACATTTGGATGGGTTGA [3d1319]	0.84
TATCACTTCGTAAGACCTTTGGATGGGTTGA [3d1318]	0.802
TATCACTTCGTAAGCACTTTGGATGGGTTGA [3d1316]	0.797
TATCACTTCGTAGACACTTTGGATGGGTTGA [3d1314]	0.783
TATCACTTCTAAGACACTTTGGATGGGTTGA [3d1312]	0.774
TATCACTTGCAAGACACTTTGGATGGGTTGA [3d1599]	0.798
TATCACTTGCGAAACACTTTGGATGGGTTGA [3d1614]	0.819

Sequence	fraction ligated
TATCACTTGCGAAGAACTTTGGATGGGTTGA [3d1616]	0.842
TATCACTTGCGAAGACACTTGGATGGGTTGA [3d1619]	0.785
TATCACTTGCGAAGACACTTTGATGGGTTGA [3d1620]	0.77
TATCACTTGCGAAGACACTTTGGAGGGTTGA [3d1622]	0.105
TATCACTTGCGAAGACACTTTGGATGGGTTA [3d1624]	0.733
TATCACTTGCGAAGACACTTTGGATGGGTTG [3d1625]	0.824
TATCACTTGCGAAGACACTTTGGATGGGTTGA [2d165]	0.835
TATCACTTGCGAAGACACTTTGGATGGTTGA [3d1623]	0.248
TATCACTTGCGAAGACACTTTGGTGGGTTGA [3d1621]	0.0968
TATCACTTGCGAAGACATTTGGATGGGTTGA [3d1618]	0.814
TATCACTTGCGAAGACCTTTGGATGGGTTGA [3d1617]	0.779
TATCACTTGCGAAGCACTTTGGATGGGTTGA [3d1615]	0.817
TATCACTTGCGAGACACTTTGGATGGGTTGA [3d1613]	0.821
TATCACTTGCGTAAAACTTTGGATGGGTTGA [3d1639]	0.858
TATCACTTGCGTAAACACTTGGATGGGTTGA [3d1642]	0.802
TATCACTTGCGTAAACACTTTGATGGGTTGA [3d1643]	0.768
TATCACTTGCGTAAACACTTTGGAGGGTTGA [3d1645]	0.0516
TATCACTTGCGTAAACACTTTGGATGGGTTA [3d1647]	0.777
TATCACTTGCGTAAACACTTTGGATGGGTTG [3d1648]	0.795
TATCACTTGCGTAAACACTTTGGATGGTTGA [3d1646]	0.149
TATCACTTGCGTAAACACTTTGGTGGGTTGA [3d1644]	0.0539
TATCACTTGCGTAAACATTTGGATGGGTTGA [3d1641]	0.822
TATCACTTGCGTAAACCTTTGGATGGGTTGA [3d1640]	0.821

Sequence	fraction ligated
TATCACTTGCGTAACACTTTGGATGGGTTGA [3d1627]	0.786
TATCACTTGCGTAAGAACTTGGATGGGTTGA [3d1660]	0.827
TATCACTTGCGTAAGAACTTTGATGGGTTGA [3d1661]	0.853
TATCACTTGCGTAAGAACTTTGGAGGGTTGA [3d1663]	0.0542
TATCACTTGCGTAAGAACTTTGGATGGGTTA [3d1665]	0.604
TATCACTTGCGTAAGAACTTTGGATGGGTTG [3d1666]	0.833
TATCACTTGCGTAAGAACTTTGGATGGTTGA [3d1664]	0.0836
TATCACTTGCGTAAGAACTTTGGTGGGTTGA [3d1662]	0.0953
TATCACTTGCGTAAGAATTTGGATGGGTTGA [3d1659]	0.835
TATCACTTGCGTAAGACACTGGATGGGTTGA [3d1681]	0.799
TATCACTTGCGTAAGACACTTGATGGGTTGA [3d1682]	0.747
TATCACTTGCGTAAGACACTTGGAGGGTTGA [3d1684]	0.0856
TATCACTTGCGTAAGACACTTGGATGGGTTA [3d1686]	0.558
TATCACTTGCGTAAGACACTTGGATGGGTTG [3d1687]	0.796
TATCACTTGCGTAAGACACTTGGATGGTTGA [3d1685]	0.152
TATCACTTGCGTAAGACACTTGGTGGGTTGA [3d1683]	0.139
TATCACTTGCGTAAGACACTTTATGGGTTGA [3d1688]	0.12
TATCACTTGCGTAAGACACTTTGAGGGTTGA [3d1690]	0.0844
TATCACTTGCGTAAGACACTTTGATGGGTTA [3d1692]	0.138
